Experimental data: paper PMC2814526 (Journal of immunology (Baltimore, Md. : 1950), 2009)

Experiments:
[1] = molecular target: hIL-15Rβ-mγc on 32Dβ cells (human | mouse (endogenous in 32D)) (UniProt P14784)
[2] = molecular target: mouse IL-15 receptor complex (mIL-15Rα-mIL-15Rβ-mγc) on CTLL-2 cells (mouse) (UniProt Q60819)
[3] = molecular target: hIL-15Rβ-mγc on 32Dβ cells (human | mouse (endogenous in 32D)) (UniProt P14784); remark: listed apart in the source
[4] = molecular target: hIL-15Rβ-mγc on 32Dβ cells (human | mouse (endogenous in 32D)) (UniProt P14784); remark: listed apart in the source
[5] = molecular target: hIL-15Rα and hγc on TF-1 cells (human (endogenous in TF-1)) (UniProt Q13261); assay: flow cytometry on cells
[6] = molecular target: hIL-15Rα-hIL-15Rβ-hγc complex on TF-1β cells (human (endogenous in TF-1) | human) (UniProt Q13261)
[7] = molecular target: c264scTCR/hIL-15 fusion protein (human, UniProt P40933 49-162); assay: ELISA
recombinant human IL-15 = recombinant human IL-15 (human, UniProt P40933 49-162); assay: ELISA

hIL-15Rβ-mγc on 32Dβ cells (human | mouse (endogenous in 32D)), sequence (P14784 27-551, chain 1 of 2): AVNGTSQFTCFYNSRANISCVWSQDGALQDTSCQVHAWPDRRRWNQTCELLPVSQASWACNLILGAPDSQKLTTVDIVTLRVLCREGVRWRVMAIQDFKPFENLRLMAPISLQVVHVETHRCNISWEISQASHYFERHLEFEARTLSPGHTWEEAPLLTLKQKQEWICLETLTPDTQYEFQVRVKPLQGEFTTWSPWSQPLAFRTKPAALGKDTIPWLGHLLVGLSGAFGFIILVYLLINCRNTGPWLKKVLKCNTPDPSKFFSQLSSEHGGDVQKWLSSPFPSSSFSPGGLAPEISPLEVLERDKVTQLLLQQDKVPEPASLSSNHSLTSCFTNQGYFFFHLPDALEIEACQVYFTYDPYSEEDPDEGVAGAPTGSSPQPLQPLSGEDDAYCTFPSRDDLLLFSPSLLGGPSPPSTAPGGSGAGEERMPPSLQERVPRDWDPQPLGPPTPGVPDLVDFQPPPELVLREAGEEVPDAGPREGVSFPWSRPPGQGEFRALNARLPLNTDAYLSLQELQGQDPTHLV
hIL-15Rβ-mγc on 32Dβ cells (human | mouse (endogenous in 32D)), sequence (P34902 23-369, chain 2 of 2, further chain): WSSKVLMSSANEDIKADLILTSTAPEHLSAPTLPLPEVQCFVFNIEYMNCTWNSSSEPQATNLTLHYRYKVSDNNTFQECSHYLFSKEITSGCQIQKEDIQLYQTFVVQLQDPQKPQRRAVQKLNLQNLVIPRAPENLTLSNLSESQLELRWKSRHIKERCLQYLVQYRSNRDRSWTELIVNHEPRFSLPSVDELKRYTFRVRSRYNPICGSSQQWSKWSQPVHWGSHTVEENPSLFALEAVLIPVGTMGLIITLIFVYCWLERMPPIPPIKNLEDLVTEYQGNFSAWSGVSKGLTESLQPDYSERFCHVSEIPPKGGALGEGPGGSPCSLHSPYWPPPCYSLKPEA
mouse IL-15 receptor complex (mIL-15Rα-mIL-15Rβ-mγc) on CTLL-2 cells (mouse), sequence (Q60819 33-263, chain 1 of 3): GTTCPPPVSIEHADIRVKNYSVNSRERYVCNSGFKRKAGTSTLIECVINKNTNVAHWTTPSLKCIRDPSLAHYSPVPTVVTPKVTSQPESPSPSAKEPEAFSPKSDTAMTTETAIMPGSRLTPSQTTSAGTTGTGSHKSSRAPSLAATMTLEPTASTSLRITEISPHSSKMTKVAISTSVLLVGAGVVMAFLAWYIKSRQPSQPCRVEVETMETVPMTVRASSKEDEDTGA
mouse IL-15 receptor complex (mIL-15Rα-mIL-15Rβ-mγc) on CTLL-2 cells (mouse), sequence (P16297 27-539, chain 2 of 3, further chain): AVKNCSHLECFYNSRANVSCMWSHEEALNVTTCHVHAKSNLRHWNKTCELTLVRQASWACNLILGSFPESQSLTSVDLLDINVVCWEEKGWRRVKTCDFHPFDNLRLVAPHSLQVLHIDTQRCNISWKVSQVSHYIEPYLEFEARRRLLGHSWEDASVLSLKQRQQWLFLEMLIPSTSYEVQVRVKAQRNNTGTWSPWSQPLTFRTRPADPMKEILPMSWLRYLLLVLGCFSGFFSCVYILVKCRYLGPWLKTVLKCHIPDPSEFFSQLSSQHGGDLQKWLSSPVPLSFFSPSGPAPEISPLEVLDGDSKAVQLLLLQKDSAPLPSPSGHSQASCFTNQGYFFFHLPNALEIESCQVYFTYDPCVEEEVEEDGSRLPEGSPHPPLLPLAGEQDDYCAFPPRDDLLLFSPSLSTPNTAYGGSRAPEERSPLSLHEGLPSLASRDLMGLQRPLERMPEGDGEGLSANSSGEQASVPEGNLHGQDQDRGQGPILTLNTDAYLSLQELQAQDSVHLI
mouse IL-15 receptor complex (mIL-15Rα-mIL-15Rβ-mγc) on CTLL-2 cells (mouse), sequence (P34902 23-369, chain 3 of 3, further chain): as the sequence (P34902 23-369, chain 2 of 2, further chain) above

| EC50 of 32Dβ cell proliferation (WST-1, 48 h) [1] [pM] | EC50 of CTLL-2 cell proliferation (WST-1, 48 h) [2] [pM] | EC50 on 32Dβ cell proliferation, rhIL-15N72D alone [3] [pM] | EC50 of the decrease in apoptosis of 32Dβ cells (Annexin V, 48 h) [4] [pM] | IC50 [5] [pM] | EC50 of TF-1β cell proliferation (WST-1, 48 h) [6] [pM] | binding result [7] | binding result (recombinant human IL-15) | Molecule |
| --- | --- | --- | --- | --- | --- | --- | --- | --- |
| 79 | 18.4 | – | – | – | – | – | – | c264scTCR/hIL-15N72D fusion protein (ligand) |
| 39.9 | 9.2 | 16.2 | 7.8 | 17.5 | 4.8 | – | – | recombinant human IL-15 N72D mutein (ligand) |
| – | – | – | – | – | – | binds | binds | c264scTCR/hIL-15RαSu fusion protein (domain or fragment, human, UniProt Q13261 31-95, looked up) ITCPPPMSVEHADIWVKSYSLYSRERYICNSGFKRKAGTSSLTECVLNKATNVAHWTTPSLKCIR |
